In US20210277441A1, “METHOD OF SELECTING A POLYPEPTIDE OF INTEREST” (IMPERIAL COLLEGE INNOVATIONS LIMITED, priority 2018, published 2021):
Where a chain is given by its changes, count along the chain named. In names and notes the source's numbering stands.

How the values were obtained:
AL cells = test: 1H NMR analysis of fermentation broth of anaerobic cultures; format: cell-based, Escherichia coli; design: Substrate concentration: unit not given here
[1] = system: LS1 strain (ΔadhE ΔldhA double mutant) cells; test: Metabolic complementation (anaerobic growth recovery) of LS1/AL strain; format: cell-based, Escherichia coli
Description: (§1) The LS1 mutant strain and the parental BW25113 strain were transformed with the desired plasmid and overnight pre-cultures were grown aerobically in 15 mL Falcon tubes with M9 media (0.4% glucose). These pre-cultures were used to inoculate 10 mL Hungate tubes with M9 medium (0.4% glucose) supplemented with 100 μg/mL ampicillin, 1 mM IPTG and with or without the specific substrate of the dehydrogenase under anaerobic conditions at 37° C. Metabolic complementation was assessed by measuring the optical density at 600 nm every two hours during daytime.

[2] = Kinetics of evolved and parental enzymes, 2-methylpyrroline as variable substrate; format: biochemical; details: reductase activity towards 2-methylpyrroline
LS5 strain = test: Metabolic complementation (anaerobic growth) of quadruple mutant; format: cell-based, Escherichia coli
Description: as §1
Since in the triple mutants the non-deleted transhydrogenase could still be supporting anaerobic growth under anaerobic fermentation conditions when complemented with an NADPH-dependent oxidoreductase by generating oxidized NAD, the inventors generated a quadruple mutant where adhE, ldhA, sthA and pntA genes were deleted (LS5 strain, FIG. 11).

[3] = system: triple mutants (adhE, ldhA and one transhydrogenase gene knocked out); test: Metabolic complementation of triple mutants; format: cell-based, E. coli; details: any of the triple mutants
Excerpt: As LS1 (ΔadhE-ΔldhA double mutant) was able to grow when transformed with an NADPH-dependent oxidoreductase (wild type CBADH), the inventors generated two triple mutants where, in addition to adhE and ldhA, one transhydrogenase gene was deleted in each. Transhydrogenases catalyse the direct transfer of electrons from NADH to NADP+ and from NADPH to NAD+, in the following reaction: NADH+NADP^+=NAD^++NADPH. Without wishing to be bound to any particularly theory, the inventors hypothesized the activity of these transhydrogenases is what makes the system able to restore anaerobic growth when transformed with enzymes that generate NADP+. Two triple mutants, where one transhydrogenase gene was knocked out in addition to adhE and ldhA, were generated, since there are 2 transhydrogenase genes in E. coli: • sthA (soluble transhydrogenase) • pntA (transmembrane transhydrogenase).

[4] = Enzymatic activity assays with purified enzyme, reduction of acetone; format: biochemical
[5] = Enzymatic activity assays with purified enzyme, oxidation of isopropanol; format: biochemical
LS1 strain cells = test: GC analysis of fermentation broth; format: cell-based, Escherichia coli; details: anaerobic, media supplemented with acetone
[6] = exogenous substrate 2-nitrobenzoic acid
[7] = exogenous substrate 4-nitrobenzylic alcohol
[8] = exogenous substrate acetoin, product 2,3-butanediol
[9] = LS1, medium supplemented with acetoin
[10] = exogenous substrate 2-methyl-1-pyrroline
[11] = exogenous substrate 2-methyl-1-pyrroline, product 2-methylpyrrolidine
[12] = exogenous substrate acetone, product isopropanol

B1: nsfB nitroreductase from Enterobacter cloacae (protein, listed as Enterobacter cloacae)
chain: MDIISVALKRHSTKAFDASKKLTAEEAEKIKTLLQYSPSSTNSQPWHFIVASTEEGKARVAKSAAGTYVFNERKMLDASHVVVFCAKTAMDDAWLERVVDQEEADGRFNTPEAKAANHKGRTYFADMHRVDLKDDDQWMAKQVYLNVGNFLLGVGAMGLDAVPIEGFDAAILDEEFGLKEKGFTSLVVVPVGHHSVEDFNATLPKSRLPLSTIVTEC
Acetate concentration (AL cells; [6]): 0.7 | Ethanol concentration (AL cells; [6]): 0 | Formate concentration (AL cells; [6]): 0.4 | Lactate concentration (AL cells; [6]): 0 | Substrate concentration (AL cells; [6]): 14.1 | Succinate concentration (AL cells; [6]): 0 | Acetate concentration (AL cells; [7]): 0.8 | Ethanol concentration (AL cells; [7]): 0 | Formate concentration (AL cells; [7]): 0.4 | Lactate concentration (AL cells; [7]): 0 | Substrate concentration (AL cells; [7]): 8.28 | Succinate concentration (AL cells; [7]): 0

B2: EntNFSB-s1: nitroreductase variant selected for 2-NBA (protein)
chain: B1 chain with S40A, T41I, F124A
modifications: amino acid variant of Enterobacter cloacae nitroreductase
notes: nitroreductase variant selected for 2-NBA
Acetate concentration (AL cells; [6]): 4.4 | Ethanol concentration (AL cells; [6]): 0 | Formate concentration (AL cells; [6]): 2.9 | Lactate concentration (AL cells; [6]): 0 | Substrate concentration (AL cells; [6]): 12.4 | Succinate concentration (AL cells; [6]): 0.3

B3: EntNFSB-s2: nitroreductase variant identified for cells grown with 4-nitrobenzyl alcohol (protein)
chain: B1 chain with T41L, Y68L, F124L
modifications: no acid variant of Enterobacter cloacae nitroreductase
notes: nitroreductase variant identified for cells grown with 4-nitrobenzyl alcohol
Acetate concentration (AL cells; [7]): 13.2 | Ethanol concentration (AL cells; [7]): 0 | Formate concentration (AL cells; [7]): 7.9 | Lactate concentration (AL cells; [7]): 0 | Substrate concentration (AL cells; [7]): 0 | Succinate concentration (AL cells; [7]): 1

B4: pLS2: pUC19 with sADH NADH-dependent from Bacillus subtilis (bdhA), acetoin reductase (protein, UniProt O34788 1-346, looked up)
(R,R)-butanediol dehydrogenase: MKAARWHNQKDIRIEHIEEPKTEPGKVKIKVKWCGICGSDLHEYLGGPIFIPVDKPHPLTNETAPVTMGHEFSGEVVEVGEGVENYKVGDRVVVEPIFATHGHQGAYNLDEQMGFLGLAGGGGGFSEYVSVDEELLFKLPDELSYEQGALVEPSAVALYAVRSSKLKAGDKAAVFGCGPIGLLVIEALKAAGATDIYAVELSPERQQKAEELGAIIVDPSKTDDVVAEIAERTGGGVDVAFEVTGVPVVLRQAIQSTTIAGETVIVSIWEKGAEIHPNDIVIKERTVKGIIGYRDIFPAVLSLMKEGYFSADKLVTKKIVLDDLIEEGFGALIKEKSQVKILVRPN
modifications: expressed from pUC19 plasmid
notes: pUC19 with sADH NADH-dependent from Bacillus subtilis (bdhA), acetoin reductase
Acetate concentration (AL cells; exogenous substrate acetoin): 6.7 | Ethanol concentration (AL cells; exogenous substrate acetoin): 0 | Formate concentration (AL cells; exogenous substrate acetoin): 3.7 | Lactate concentration (AL cells; exogenous substrate acetoin): 0 | Substrate concentration (AL cells; exogenous substrate acetoin): 0 | Succinate concentration (AL cells; exogenous substrate acetoin): 0.5 | Product concentration (AL cells; [8]): 8.4 | anaerobic growth recovery [1, 9]: growth recovery was achieved

B5: MsIRED-s: MsIRED variant with N32E, R33V, T34R and K37R, NADH-dependent (protein)
chain: MKPTLTVIGAGRMGSALIKAFLQSGYTTTVWEVRKARSEPLAKLGAHLADTVRDAVKRSDIIVVNVLDYDTSDQLLRQDEVTRELRGKLLVQLTSGSPALAREQETWARQHGIDYLDGAIMATPDFIGQAECALLYSGSAALFEKHRAVLNVLGGATSHVGEDVGHASALDSALLFQMWGTLFGTLQALAISRAEGIPLEKTTAFIKLTEPVTQGAVADVLTRVQQNRLTADAQTLASLEAHNVAFQHLLALCEERNIHRGVADAMYSVIREAVKAGHGKDDFAILTRFLK
modifications: variant of Myxococcus stipitatus imine reductase
notes: MsIRED variant with N32E, R33V, T34R and K37R, NADH-dependent
activity with NADPH [2]: no activity was detected | Acetate concentration (AL cells; [10]): 15.9 | Ethanol concentration (AL cells; [10]): 0 | Formate concentration (AL cells; [10]): 12.8 | Lactate concentration (AL cells; [10]): 0 | Substrate concentration (AL cells; [10]): 0.8 | Succinate concentration (AL cells; [10]): 2 | Product concentration (AL cells; [11]): 13.4 | anaerobic growth compared with best variant of previous studies ([1]; media supplemented with 2-methylpyrroline): more efficiently

B6: Myxococcus stipitatus imine reductase (protein)
chain: B5 chain with E32N, V33R, R34T, R37K
modifications: Myxococcus stipitatus imine reductase
Acetate concentration (AL cells; [10]): 4.3 | Ethanol concentration (AL cells; [10]): 0 | Formate concentration (AL cells; [10]): 2.1 | Lactate concentration (AL cells; [10]): 0 | Substrate concentration (AL cells; [10]): 5.5 | Succinate concentration (AL cells; [10]): 1.2 | Product concentration (AL cells; [11]): 6.6

B7: pLS3: pUC19 with sADH NADH-dependent from Klebsiella pneumoniae (budC), acetoin reductase (protein, UniProt Q48436 1-256, looked up)
Diacetyl reductase …: MKKVALVTGAGQGIGKAIALRLVKDGFAVAIADYNDATAKAVASEINQAGGRAMAVKVDVSDRDQVFAAVEQARKTLGGFDVIVNNAGVAPSTPIESITPEIVDKVYNINVKGVIWGIQAAVEAFKKEGHGGKIINACSQAGHVGNPELAVYSSSKFAVRGLTQTAARDLAPLGITVNGYCPGIVKTPMWAEIDRQVSEAAGKPLGYGTAEFAKRITLGRLSEPEDVAACVSYLASPDSDYMTGQSLLIDGGMVFN
modifications: expressed from pUC19 plasmid
notes: pUC19 with sADH NADH-dependent from Klebsiella pneumoniae (budC), acetoin reductase
Acetate concentration (AL cells; exogenous substrate acetoin): 7.9 | Ethanol concentration (AL cells; exogenous substrate acetoin): 0 | Formate concentration (AL cells; exogenous substrate acetoin): 5 | Lactate concentration (AL cells; exogenous substrate acetoin): 0 | Substrate concentration (AL cells; exogenous substrate acetoin): 0.2 | Succinate concentration (AL cells; exogenous substrate acetoin): 0.7 | Product concentration (AL cells; [8]): 8.3 | anaerobic growth recovery [1, 9]: growth recovery was achieved

B8: Clostridium beijerinckii alcohol dehydrogenase (protein, listed as Clostridium beijerinckii)
chain: MKGFAMLGINKLGWIEKERPVAGSYDAIVRPLAVSPCTSDIHTVFEGALGDRKNMILGHEAVGEVVEVGSEVKDFKPGDRVIVPCTTPDWRSLEVQAGFQQHSNGMLAGWKFSNFKDGVFGEYFHVNDADMNLAILPKDMPLENAVMITDMMTTGFHGAELADIQMGSSVVVIGIGAVGLMGIAGAKLRGAGRIIGVGSRPICVEAAKFYGATDILNYKNGHIVDQVMKLTNGKGVDRVIMAGGGSETLSQAVSMVKPGGIISNINYHGSGDALLIPRVEWGCGMAHKTIKGGLCPGGRLRAEMLRDMVVYNRVDLSKLVTHVYHGFDHIEEALLLMKDKPKDLIKAVVIL
anaerobic growth (LS5 strain; media supplemented with acetone or not): anaerobic growth is not restored | Acetate concentration (AL cells; exogenous substrate acetone): 8.1 | Ethanol concentration (AL cells; exogenous substrate acetone): 0 | Formate concentration (AL cells; exogenous substrate acetone): 5.8 | Lactate concentration (AL cells; exogenous substrate acetone): 0 | Substrate concentration (AL cells; exogenous substrate acetone): 0.1 | Succinate concentration (AL cells; exogenous substrate acetone): 1.1 | Product concentration (AL cells; [12]): 10.8 | anaerobic growth [3]: still able to grow anaerobically | time after which growth recovery was observed ([1]; LS1 cells cultured anaerobically, media supplemented with acetone): 55 h

B9: CBADH-s: CBADH variant with substitutions G198D, S199Y and Y218P, uses NADH instead of NADPH (protein)
chain: B8 chain with G198D, S199Y, Y218P
modifications: amino acid variant of CBADH
notes: CBADH variant with substitutions G198D, S199Y and Y218P, uses NADH instead of NADPH
increase in activity compared to the wild type ([4]; reduction of acetone to isopropanol, NADH as the cofactor, purified enzyme): 4.6 fold | activity with NADP(H) as the cofactor ([4]; reduction reaction): no significant activity | increase in activity compared to the wild type ([5]; oxidation of isopropanol to acetone, NAD+ as the cofactor, purified enzyme): io | activity with NADP(H) as the cofactor ([5]; oxidation reaction): no significant activity | anaerobic growth (LS5 strain; media supplemented with acetone): anaerobic growth is restored | isopropanol in fermentation broth compared with pLS6 (LS1 strain cells): much higher levels | Acetate concentration (AL cells; exogenous substrate acetone): 13 | Ethanol concentration (AL cells; exogenous substrate acetone): 0 | Formate concentration (AL cells; exogenous substrate acetone): 9.9 | Lactate concentration (AL cells; exogenous substrate acetone): 0 | Substrate concentration (AL cells; exogenous substrate acetone): 0.5 | Succinate concentration (AL cells; exogenous substrate acetone): 1.1 | Product concentration (AL cells; [12]): 12.7 | anaerobic growth recovery ([1]; LS1, media supplemented with acetone): allowed growth recovery
